Test results as given in the supplement of paper PMC10567573.
± gives the standard deviation.

Assay: protein stability index of a GFP-peptide fusion (GPS, HEK-293T) (PSI 1-6); higher = more stable
[1] = treatment: DMSO, c terminus: a fixed tail appended
[2] = treatment: MLN4924 1 uM, 8 h, c terminus: a fixed tail appended
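Also: 24-mer peptide tiles fused after GFP, lentivirally expressed, FACS-sorted into six equal bins by GFP/DsRed ratio, decoded by Illumina sequencing, PSI is the read-weighted mean bin number.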

LQAALQVLELHHSKLDTTKALNLL [VPS39]
protein stability index [1]: 2.23 ± 0.27
protein stability index [2]: 2.29 ± 0.21

LQDMLDGFIKKFVLCPECENPETD [EIF5]
protein stability index [1]: 3.19 ± 0.43
protein stability index [2]: 3.34 ± 0.12

LQGCSSIGLRLVLEYLYTANVTLS [KLHL14]
protein stability index [1]: 3.07 ± 0.45
protein stability index [2]: 2.93 ± 0.67

LQIYQYVPKDQRLQAIKAAIMLLP [DLC1]
protein stability index [1]: 2.64 ± 0.62
protein stability index [2]: 2.41 ± 0.58

LQLNARSFMMGQGGEAAHHTRSPY [NEUROD6]
protein stability index [1]: 2.99 ± 0.22
protein stability index [2]: 3.37 ± 0.32

LQRNPKHELTAKYLNYYQGMLDVA [P3H4]
protein stability index [1]: 2.3 ± 0.13
protein stability index [2]: 2.39 ± 0.41

LRELGHAEHEITELTATFTKFDRD [PKD2L1]
protein stability index [1]: 4.48 ± 0.28
protein stability index [2]: 4.59 ± 0.25

LRRSVEKYNSARADFEQKMLDSAL [FCHO1]
protein stability index [1]: 3.29 ± 0.54
protein stability index [2]: 3.35 ± 0.14

LSQPVTYQAFRECTLETTVHASGW [BCL2L13]
protein stability index [1]: 2.44 ± 0.46
protein stability index [2]: 2.48 ± 0.4

LSSEMNTSTVNSAREELMESRMRI [LMNB1]
protein stability index [1]: 4.48 ± 0.29
protein stability index [2]: 4.27 ± 0.17

LSSIKRDTNSIAKAIKARGEVIHC [STX11]
protein stability index [1]: 3.22 ± 0.19
protein stability index [2]: 3.32 ± 0.2

LTMAATFDDCLYALCVVDTIKRSS [GFOD1]
protein stability index [1]: 2.54 ± 0.72
protein stability index [2]: 2.68 ± 0.57

LVELLQPFKQVAEMLSASRYPTIS [ZBED1]
protein stability index [1]: 2.65 ± 0.66
protein stability index [2]: 2.29 ± 0.57

LVFEHVDQDLRTYLDKAPPPGLPA [CDK4]
protein stability index [1]: 2.7 ± 0.36
protein stability index [2]: 2.88 ± 0.34

LWPTPGHLSPLVVHRQLSHLYAEP [ESR2]
protein stability index [1]: 2.38 ± 0.24
protein stability index [2]: 2.54 ± 0.3

LYLQLAICSSLQNLEKTIFCLQKL [C8orf76]
protein stability index [1]: 3.12 ± 0.69
protein stability index [2]: 3.2 ± 0.099

MAEEQGRERDSVPKPSVLFLHPDL [ALG2]
protein stability index [1]: 4.36 ± 0.15
protein stability index [2]: 4.5 ± 0.32

MAHVDFRPPAYSPAQRSHTYTHGL
protein stability index [1]: 2.8 ± 0.25
protein stability index [2]: 2.88 ± 0.32

MASDTPESLMALCTDFCLRNLDGT [ZER1]
protein stability index [1]: 3.88 ± 0.14
protein stability index [2]: 3.43 ± 0.41

MATSRYEPVAEIGVGAYGTVYKAR [CDK4]
protein stability index [1]: 3.2 ± 0.094
protein stability index [2]: 3.2 ± 0.24

MCKADLSRNFIERNHMENGGDHRY [TRIM29]
protein stability index [1]: 3.41 ± 0.25
protein stability index [2]: 3.33 ± 0.26

MDLSERQEVSSVRSLSSTGSLPSH [DLC1]
protein stability index [1]: 4.61 ± 0.25
protein stability index [2]: 4.47 ± 0.29

MDPPNPEEVKTPEEEMRSHYVAQT [GAGE1]
protein stability index [1]: 5.44 ± 0.087
protein stability index [2]: 5.4 ± 0.2

MEDSFLQSFGRLSLQPQQQQQRQR [N4BP2L1]
protein stability index [1]: 4.69 ± 0.3
protein stability index [2]: 4.63 ± 0.25

MENIGAIQVLPKLSSSIIHEIDSI [KCNAB2]
protein stability index [1]: 3.53 ± 0.34
protein stability index [2]: 3.51 ± 0.29

MEVAMVSAESSGCNSHMPYGYAAQ [KCNA4]
protein stability index [1]: 2.95 ± 0.15
protein stability index [2]: 3.32 ± 0.5

MFFTCGPNEAMVVSGFCRSPPVMV [FLOT1]
protein stability index [1]: 2.93 ± 0.52
protein stability index [2]: 2.9 ± 0.74

MFIPETKGCSLEQISMELAKVNYV [SLC2A12]
protein stability index [1]: 2.33 ± 0.62
protein stability index [2]: 2.39 ± 0.31

MGCTLSAEDKAAVERSKMIDRNLR [GNAI1]
protein stability index [1]: 4.64 ± 0.32
protein stability index [2]: 4.54 ± 0.1

MGHCCCKPYNCLQCLDKTNESALV [MTUS2]
protein stability index [1]: 3.28 ± 0.3
protein stability index [2]: 3.4 ± 0.34

MKKAKEQLKIRKSNQIPTEVRSKA [FUNDC2]
protein stability index [1]: 4.59 ± 0.34
protein stability index [2]: 4.76 ± 0.45

MLSWILRINLVAAIFSAPAFPAAV [PSD2]
protein stability index [1]: 3.23 ± 0.19
protein stability index [2]: 2.89 ± 0.39

MMGLAQIYKKYALQSAAGKDAAKQ [PDS5B]
protein stability index [1]: 2.8 ± 0.27
protein stability index [2]: 3.23 ± 0.1

MNGGMSLVAFVLLNECVGTAYWAL [SLC22A15]
protein stability index [1]: 3.91 ± 2
protein stability index [2]: 3.13 ± 0.38

MNHYKKTTLEIHNTEERQKRQVTH [PTPN9]
protein stability index [1]: 4.52 ± 0.06
protein stability index [2]: 4.49 ± 0.36

MPALEGAPHTPPLPRRPRKGSSEL [RNF208]
protein stability index [1]: 5.11 ± 0.27
protein stability index [2]: 5.21 ± 0.22

MPQYILREFKVTDARDGQSRTVRQ [PTPRD]
protein stability index [1]: 3.75 ± 0.18
protein stability index [2]: 4.18 ± 0.27

MPSPTDVVLPGAVSLRYSGATAAS [ADAMTS4]
protein stability index [1]: 4.16 ± 0.3
protein stability index [2]: 4.25 ± 0.32

MPTQEVQELPIPSKLLEFLSYRI [WSB1]
protein stability index (treatment: DMSO, c terminus: native): 2.82 ± 0.2
protein stability index (treatment: MLN4924 1 uM, 8 h, c terminus: native): 3.05 ± 0.12

MQVLGPEDLQSIIYKLEEHEEFFP [CEP70]
protein stability index [1]: 2.99 ± 0.53
protein stability index [2]: 3.41 ± 0.39

MREMFFEDHIDDAKYCGHLYGLGS [CNOT7]
protein stability index [1]: 2.68 ± 0.093
protein stability index [2]: 2.44 ± 0.28

MRGVAEVKEPCSLPMLSVDMENKE [SAMD13]
protein stability index [1]: 5.32 ± 0.18
protein stability index [2]: 5.53 ± 0.21

MRTTNLDNRCKLFDSPSLCSSSTR [CDC25A]
protein stability index [1]: 3.21 ± 0.4
protein stability index [2]: 3.18 ± 0.24

MSALGSPVRAYDFLLKFLLVGDSD [RAB40B]
protein stability index [1]: 2.42 ± 0.38
protein stability index [2]: 2.13 ± 0.32

MSLHGASGGHERSRDRRRSSDRSR [BTBD10]
protein stability index [1]: 5.05 ± 0.16
protein stability index [2]: 5.19 ± 0.22

MSPESYLGSPQHSPSTRGSPNRSL [ATF4]
protein stability index [1]: 4.64 ± 0.19
protein stability index [2]: 4.91 ± 0.3

MSQPRTPEQALDTPGDCPPGRRDE [TMEM175]
protein stability index [1]: 5.38 ± 0.17
protein stability index [2]: 5.58 ± 0.19

MVLAPVFGYLGDRYNRKYLMCGGI [SPNS1]
protein stability index [1]: 2.61 ± 0.058
protein stability index [2]: 2.5 ± 0.84

MVRFKHRYLLCELVSDDPRCRLSL [POP5]
protein stability index [1]: 2.56 ± 0.38
protein stability index [2]: 2.55 ± 0.58

MYDLPKKEDALLYQSKGYNDDYYE [EMD]
protein stability index [1]: 4.27 ± 0.15
protein stability index [2]: 4.25 ± 0.22

MYEEEINETRRKHETRLVEVDSGR [LMNB1]
protein stability index [1]: 5.04 ± 0.44
protein stability index [2]: 5.06 ± 0.099

NAGLSHTEYQIVTDPGDVPAFLKW [SLC2A12]
protein stability index [1]: 2.92 ± 0.3
protein stability index [2]: 3.1 ± 0.34

NAMTCEGCKGFFRRSMKRKALFTC [VDR]
protein stability index [1]: 2.38 ± 0.36
protein stability index [2]: 2.22 ± 0.6

NCNWFCEGSFNGSEKETMQFLNDR [KRT33B]
protein stability index [1]: 3.54 ± 0.35
protein stability index [2]: 3.61 ± 0.19

NDFWRIEVVNRKFGNRIKVLRSRI [POMT2]
protein stability index [1]: 2.19 ± 0.6
protein stability index [2]: 2.17 ± 0.48

NEIIKKLQGDLKTLMGKLKLKNTV [SASS6]
protein stability index [2]: 2.21 ± 0.35

NGTMTIDWNEWRDYHLLHPVENIP [SLC25A25]
protein stability index [1]: 3.18 ± 0.28
protein stability index [2]: 3.07 ± 0.19

NHWVPACHSFNRAIHKKAKGTEAE [FBXO34]
protein stability index [1]: 4 ± 0.17
protein stability index [2]: 4.1 ± 0.12

NIADIEEKRGFTSHFVFVIEVKTK [NCF4]
protein stability index [1]: 2.47 ± 0.74
protein stability index [2]: 2.62 ± 0.44

NKILVPLVLLRQMLLELTRRGQEP [BCL2L13]
protein stability index [1]: 2.64 ± 1.6
protein stability index [2]: 2.92 ± 0.92

NLEKTIFCLQKLISLHPFNPWNWG [C8orf76]
protein stability index [1]: 2.53 ± 0.77
protein stability index [2]: 2.59 ± 0.5

NLQPPASLQTGNHSNGPTDLSMKG [NOL4L]
protein stability index [1]: 4.66 ± 0.25
protein stability index [2]: 4.61 ± 0.21

NLRATDVRLMRQLLVINESIESIK [LURAP1L]
protein stability index [1]: 2.41 ± 0.16
protein stability index [2]: 2.58 ± 0.35

NMKNGANDVKHHRWFRSVDWEAVP [PRKX]
protein stability index [1]: 2.95 ± 0.33
protein stability index [2]: 3.08 ± 0.33

NPSQKTGQALLTHLYQSSARRYAG [ELAVL3]
protein stability index [1]: 3.58 ± 0.23
protein stability index [2]: 3.4 ± 0.36

NQYLYFLFAPTLIYRDSYPRNPTV [SOAT1]
protein stability index [1]: 3.26 ± 0.69
protein stability index [2]: 2.57 ± 0.62

NRRSSRETREYAPPSRGHGYRDYG [RBMY1A1]
protein stability index [1]: 4.27 ± 0.24
protein stability index [2]: 4.09 ± 0.23

NSFGLRFGKREAAPGNHGRSAGRG [KISS1]
protein stability index [1]: 4.44 ± 0.4
protein stability index [2]: 4.4 ± 0.46

NTLRSQLGDRLNVEVDTAPTVDLN [KRT34]
protein stability index [1]: 4.84 ± 0.18
protein stability index [2]: 4.84 ± 0.15

NTTCVGRYPVCKFPSLQVTAILIE [FEM1C]
protein stability index [1]: 2.67 ± 0.48
protein stability index [2]: 2.23 ± 0.21

NTVKVQVLYPDGQAQMIHPKPADF [INTS4]
protein stability index [1]: 3.05 ± 0.48
protein stability index [2]: 3.08 ± 0.27

NYLIFSQKPEFQDLSVEERSFVEK [RHOBTB3]
protein stability index [1]: 3.61 ± 0.16
protein stability index [2]: 3.69 ± 0.27

NYSQDAADACDIDEIEEVPTTSHR [NETO1]
protein stability index [1]: 5.55 ± 0.18
protein stability index [2]: 5.49 ± 0.17

PAADPPRYTFAPSVSLNKTARPFG [PDLIM7]
protein stability index [1]: 3.54 ± 0.27
protein stability index [2]: 3.64 ± 0.35

PADFSLGSLPGPGQTSGAREPPQA [VENTX]
protein stability index [1]: 5.12 ± 0.2
protein stability index [2]: 5.16 ± 0.24

PAGTPPPTARHFQEHPRQQLATSS [MOSPD3]
protein stability index [1]: 4.74 ± 0.27
protein stability index [2]: 4.83 ± 0.17

PALLEATGGAAGAGGAGRGEDEEN [KCTD13]
protein stability index [1]: 5.62 ± 0.24
protein stability index [2]: 5.64 ± 0.24

PCYDVRYAPSCAKCKKKITGEIMH [PDLIM7]
protein stability index [1]: 3.04 ± 0.39
protein stability index [2]: 2.97 ± 0.38

PDEAARARLLQEGGGGVAAVVVLD [DUSP5]
protein stability index [1]: 4.3 ± 0.46
protein stability index [2]: 4.57 ± 0.13

PDSMFLAMLAVVSCASIGSGEPPT [CDK11A]
protein stability index [1]: 2.74 ± 0.15
protein stability index [2]: 3.222 ± 0.003

PDTMEKLRTHIDAIILALPEDLQG [DENND6A]
protein stability index [1]: 3.02 ± 0.5
protein stability index [2]: 3.02 ± 0.23

PEEKIWEELSVLEVFEGREDSIFG [MAGEA6]
protein stability index [1]: 4.23 ± 0.29
protein stability index [2]: 4.17 ± 0.39

PEWDTVTPEAKDLINKMLTINPSK [CAMK2A]
protein stability index [1]: 4.886 ± 0.036
protein stability index [2]: 5.03 ± 0.12

PFDMDSCLSRHSINPYSNRESRIL [DFFB]
protein stability index [1]: 3.24 ± 0.29
protein stability index [2]: 3.22 ± 0.29

PFIVFGATGLTSGLLSLLLPETLN [SLC22A15]
protein stability index [1]: 3.19 ± 0.49
protein stability index [2]: 3.14 ± 0.42

PGEFSDASMSPDATKPSHWCSVAY [SMAD6]
protein stability index [1]: 3.07 ± 0.14
protein stability index [2]: 3.14 ± 0.19

PGHGGIMDRFDCQYLMATFVHVYI [CDS1]
protein stability index [1]: 3.26 ± 0.46
protein stability index [2]: 3.1 ± 0.3

PGHIGPPGPTGPKGISGHPGEKGE [EMID1]
protein stability index [1]: 5.59 ± 0.17
protein stability index [2]: 5.07 ± 0.35

PGPVCQPPVSQSRSLFSSVPSKPP [ANKRD40]
protein stability index [1]: 4.34 ± 0.39
protein stability index [2]: 4.54 ± 0.48
